This is an account of results in US20230176070A1.

T1: PDZ domain of mitochondrial outer membrane protein 25 (mammalian (so in the source)) (UniProt P57105)
T1 sequence (looked up): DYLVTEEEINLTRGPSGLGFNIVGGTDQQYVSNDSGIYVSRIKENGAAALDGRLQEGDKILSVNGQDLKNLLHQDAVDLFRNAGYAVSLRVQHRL

B1: H44 (VHH)
VHH: EVQLVESGGGLAQAGGSLRLSCAASGGTFSNSCMGWFRQAPGMEREFVAIIRSTGHTTYADSVEGRFTVSRDIAKNTVYLEMNSLKPEDTAVYSCAAGASDYGCYHTSGISYWGQGTQVTVSS
B2: H39 (VHH)
VHH: QVQLVESGGGLVQAGVSLRLSCAASERTFSSYIMGWFRQAPGKEREFIAAISWSGGNTDYAGSVQGRFTISRDNAQNTVYLQMNSLEPEDTAVYYCAADATHSWSYGSRWYDRNYNYWGQGTQVTVSS
B3: H40 (VHH)
VHH: EVQLVESGGGLVQAGASLRLSCAASGGTFSSYIMGWFRQAPGKEREFVAAISWSGRSTHYADSVKGRFAISRDNDRVYLQMNSLKPEDTAVYSCAADPNYTWRDDRYYREEGYTYWGQGTQVTVSS
B4: H38 (VHH)
VHH: HVQLVESGGGLVQAGGSLRLSCAASELTFSNYAMGWFRRAPGKERGFVAAISYSGGSTDYADSVKGRFTISRDNAKKTVYLQMNSLKPEDTAVYYCAAAYMGWGTARSAYEYWGQGTQVTVSS
B5: H42 (VHH)
VHH: HVQLVESGGGLVQAGGSLRLSCAASGLTFSNYAMGWFRQAPGKEREFVVAISWSGANTYYSDSVKGRFTASRDNAKKTVYLQMNSLKPEDTAVYYCAADYRGLGYSTAHEYDYWGQGTQVTVSS
B6: NbPDZ P10 (VHH)
VHH: DVQLVESGGGLVQAGGSLRLSCTASGRTFSTYTMAWFRQAPGKEREFVAAITWSGTYYADSVKGRFTISRDNAKNTMYLQMNSLKPEDTAVYICAAVIGSTVDSYSPSDPLEYDYWGQGTQVTVSE
B7: P14 (VHH)
VHH: B6 VHH with D1Q, G16D, T52S, M77V, I93Y, S104T, E126S
B8: P4 (VHH)
VHH: HVQLVESGGGLVQAGGSLRLSCAAAGRTSSDYAMGWFRQAPGKEREFVSAINWSGISTYYADSVKGRFTISRDNAKNTVHLQMNSLKPEDTAVYYCAAEKLESLRNWHDPLMYDYWGQGTQVTVSE
B9: P2 (VHH)
VHH: DVQLVESGGGLVQAGGSLRLSCAASGHTFSSYTMGWFHQAPGKEREFVAEISGTGGNTGYADSVKGRFTISRDNAKNTVYLQMNSLKPEDTAVYYCAAVIGSPTDSSDYRSSLDYDYWGQGTQVTVSE
B10: P6 (VHH)
VHH: B9 VHH with D1H, H27R, S31R, I70M, A92G
B11: P3 (VHH)
VHH: B9 VHH with H27R, S52G
B12: P13 (VHH)
VHH: QVQLVESGGGLVQAGGSLRLSCAASGRTFSTYTMGWFRQAPGKEREFVAAVTWSETLYSDSVKGRFTISRDNAKNTVYLQMNSLKPEDTAVYYCAAVQGSPVDTIVVLTTSEEYDYWGQGTQVTVSS
B13: P15 (VHH)
VHH: QVQLVESGGGLVQAGGSLRLSCVASGRPFSSLDMGWFRQRPGKERDVVATINWTGDSTYYLDSVKGRFTISRDNAKNTVFLQMNSLKPEDTAVYYCAARGGGSSVDSEYDVGEFEYDYWGQGTQVTVSS
B14: P11 (VHH)
VHH: DVQLVESGGGLVQAGGSLRLSCVASGRTFSTYTMGWFRQAPGKEREFVAHIGWSGSSTYYADSVKGRFTISRDNAKNTMYLQMNSLKPEDTAVYYCAVAIGSPVDSYRHSDPLEYDYWGQGTQVTVSE
B15: P9 (VHH)
VHH: DVQLVESGGGLVQAGGSLRLSCVASVASGRTFGWYDMGWFRQAPGKEREFVAAISWSGGSTYYADSVKGRSTISRDNAKNTVYLQMNSLKPEDTAVYYCAARGGGTSVDSDYDVGEFEYDYWGQGTQVTVSE
B16: P5 (VHH)
VHH: DVQLVESGGGLVQAGDSLRLSCAASGITFRWYTMAWFRQAPGKERDFVATINWSGSDTNYADSVKGRFTISRDNAKNTVTLQMNSLQPEDTAVYYCAGVPGTSLSGETDPRDYDYWGQGTQVTVSE

Substitutions are numbered along the chain they refer to.

For one assay, the target named is human serum albumin (human) (UniProt P02768). Description: indirect ELISA, HSA coated.
Chain of human serum albumin (human) (P02768 25-609 limits assumed): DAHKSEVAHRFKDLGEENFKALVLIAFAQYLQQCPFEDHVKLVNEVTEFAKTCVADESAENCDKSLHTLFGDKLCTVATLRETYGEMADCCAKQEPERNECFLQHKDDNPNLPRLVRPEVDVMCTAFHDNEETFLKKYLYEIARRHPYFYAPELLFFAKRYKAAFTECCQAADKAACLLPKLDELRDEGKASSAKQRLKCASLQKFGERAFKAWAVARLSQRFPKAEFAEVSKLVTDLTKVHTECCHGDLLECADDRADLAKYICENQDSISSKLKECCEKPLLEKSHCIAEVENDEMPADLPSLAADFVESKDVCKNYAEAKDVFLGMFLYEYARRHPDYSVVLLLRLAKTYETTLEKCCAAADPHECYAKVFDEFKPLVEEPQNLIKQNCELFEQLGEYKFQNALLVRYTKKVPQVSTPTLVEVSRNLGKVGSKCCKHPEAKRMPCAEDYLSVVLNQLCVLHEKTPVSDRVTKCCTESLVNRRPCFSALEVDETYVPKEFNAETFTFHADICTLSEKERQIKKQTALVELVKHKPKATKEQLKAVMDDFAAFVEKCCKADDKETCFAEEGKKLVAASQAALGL
B1 returned an ELISA affinity (LogIC50 (oD450nm)) of 5.62.

B2: the ELISA affinity (LogIC50 (oD450nm)) was 5.2.

Take B3: the ELISA affinity (LogIC50 (oD450nm)) was determined as 3.16.

In turn, B4 yielded an ELISA affinity (LogIC50 (oD450nm)) of 2.44.

Molecule B5 displayed an ELISA affinity (LogIC50 (oD450nm)) of 4.92.

In a further assay the target is GST fusion PDZ mutant protein (R46E:K48D) (mammalian (so in the source)) (UniProt P57105). The assay is described as follows: indirect ELISA, PDZ R46E:K48D coated.
Take B6: the Mutant ELISA affinity (LogIC50 (oD450nm)) was determined as 3.83.

In turn, B7 had a Mutant ELISA affinity (LogIC50 (oD450nm)) of 3.74.

On to B8, for which the Mutant ELISA affinity (LogIC50 (oD450nm)) came out at 4.58.

In turn, B9 gave a Mutant ELISA affinity (LogIC50 (oD450nm)) of 4.35.

B10: the Mutant ELISA affinity (LogIC50 (oD450nm)) stood at 4.73.

Molecule B11 came in with a Mutant ELISA affinity (LogIC50 (oD450nm)) of 4.78.

For the molecule B12, the Mutant ELISA affinity (LogIC50 (oD450nm)) was 0.0071.

With B13, the Mutant ELISA affinity (LogIC50 (oD450nm)) was determined as 1.66.

As to B14, the Mutant ELISA affinity (LogIC50 (oD450nm)) was 0.

B15 showed a Mutant ELISA affinity (LogIC50 (oD450nm)) of 2.61.

Molecule B16 displayed a Mutant ELISA affinity (LogIC50 (oD450nm)) of 0.

Another assay has as its target T1, PDZ domain of mitochondrial outer membrane protein 25 (mammalian (so in the source)). The assay is described as follows: indirect ELISA, wild type PDZ coated.
As for B7, the WT ELISA affinity (LogIC50 (oD450nm)) came to 5.15.

With B8, the WT ELISA affinity (LogIC50 (oD450nm)) worked out at 4.42.

As to B9, the WT ELISA affinity (LogIC50 (oD450nm)) turned out to be 5.44.

B10: the WT ELISA affinity (LogIC50 (oD450nm)) came out at 5.25.

As for B11, the WT ELISA affinity (LogIC50 (oD450nm)) is 5.26.

In turn, B12 yielded a WT ELISA affinity (LogIC50 (oD450nm)) of 4.45.

B13 gave a WT ELISA affinity (LogIC50 (oD450nm)) of 4.97.

B14 displayed a WT ELISA affinity (LogIC50 (oD450nm)) of 4.07.

B15: the WT ELISA affinity (LogIC50 (oD450nm)) came out at 4.88.

Turning to B16, the WT ELISA affinity (LogIC50 (oD450nm)) is 4.7.

The target in the next assay is GST fusion PDZ mutant protein (R46E:K48D) (mammalian (so in the source)) (UniProt P57105). Description: ELISA, wild type PDZ against PDZ R46E:K48D.
The molecule B6 registered an Affinity fold change of 23.5 fold.

The molecule B7 yielded an Affinity fold change of 25.7 fold.

For the molecule B8, the Affinity fold change came to 1 fold.

Turning to B9, the Affinity fold change is 12.1 fold.

Regarding B10, the Affinity fold change was determined as 3.32 fold.

The molecule B11 had an Affinity fold change of 3.04 fold.

B12 displayed an Affinity fold change of 28000 fold.

B13: the Affinity fold change worked out at 2060 fold.

For the molecule B14, the Affinity fold change stood at 11700 fold.

As for B15, the Affinity fold change was 185 fold.

Turning to B16, the Affinity fold change turned out to be 50600 fold.
